Consider 167 variants from paper PMC12102759.

B1: ICA1L peptide 451-466 (Islet cell autoantigen 1-like protein), 16-mer library wild type / NSP16 (ORF1ab Nsp16, residues 6799-7088) (parent)
chain 1: QDMSAWFNLFADLDPL
chain 2: SSQAWQPGVAMPNLYKMQRMLLEKCDLQNYGDSATLPKGIMMNVAKYTQLCQYLNTLTLAVPYNMRVIHFGAGSDKGVAPGTAVLRQWLPTGTLLVDSDLNDFVSDADSTLIGDCATVHTANKWDLIISDMYDPKTKNVTKENDSKEGFFTYICGFIQQKLALGGSVAIKITEHSWNADLYKLMGHFAWWTAFVTNVNASSSEAFLIGCNYLGKPREQIDGYVMHANYIFWRNTNPIQLSSYSLFDMSKFPLKLRGTAVMSLKEGQINDMILSLLSKGRLIIRENNRVVI
B2: NEK9 peptide 738-753 (Serine/threonine-protein kinase Nek9), 16-mer library wild type / NSP9 (ORF1ab Nsp9, residues 4141-4253) (parent)
chain 1: SGLSIGTVFQSSSPGG
chain 2: NNELSPVALRQMSCAAGTTQTACTDDNALAYYNTTKGGRFVLALLSDLQDLKWARFPKSDGTGTIYTELEPPCRFVTDTPKGPKVKYLYFIKGLNNLNRGMVLGSLAATVRLQ
B3: TET3 peptide 460-475 (Methylcytosine dioxygenase TET3), 16-mer library wild type / NSP3 SUD-M (ORF1ab Nsp3c SUD-M, residues 1356-1493) (parent)
chain 1: MAELEQLLGSASDYIQ
chain 2: LPSIISNEKQEILGTVSWNLREMLAHAEETRKLMPVCVETKAIVSTIQRKYKGIKIQEGVVDYGARFYFYTSKTTVASLINTLNDLNETLVTMPLGYVTHGLNLEEAARYMRSLKVPATVSVSSPDAVTAYNGYLTSS
B4: NCOA2 peptide 1075-1090 (Nuclear receptor coactivator 2), 16-mer library wild type / NSP3 UBl1 (ORF1ab Nsp3a Ub1, residues 819-925) (parent)
chain 1: DEGALLDQLYLALRNF
chain 2: APTKVTFGDDTVIEVQGYKSVNITFELDERIDKVLNEKCSAYTVELGTEVNEFACVVADAVIKTLQPVSELLTPLGIDLDEWSMATYYLFDESGEFKLASHMYCSFY

The variants in one experiment derive from B1. To be noted: with NSP16 (ORF1ab Nsp16, residues 6799-7088); bait immobilised on MaxiSorp plates (10 µg), library pre-cleared on GST, 2 h binding at 4 °C, five washes; one round per day, days 1-4; value from days 2 and 3; keep out of graded; scale: average fractional NGS count over selection days 2 and 3.
Take chain 1 D2E: the screen value came to 0.
Still for that read-out and setting: for chain 1 D14F the value was 1.57e-05; for chain 1 D14G, 1.57e-05; for chain 1 D14S, 6.51e-05.
The same measure, in the same setting: for chain 1 D14N the value was 6.07e-05; for chain 1 D14A, 3.47e-05.
Same read-out and setting: the same measure for chain 1 D14L: 6.11e-05; for chain 1 D14R: 8.06e-05.
Regarding chain 1 D14H, the screen value stood at 0.
For the variant chain 1 L16A, the screen value was 6.04e-05.
Same read-out and setting: the same measure for chain 1 L16N: 2.43e-05.
On the same count and under the same terms, the same measure for chain 1 L16F: 2.69e-05; for chain 1 L16D: 3.18e-05.
Same read-out and setting: for chain 1 L16S the value was 5.17e-05; for chain 1 D12Q, 5.82e-05.
In the case of chain 1 D12N, the screen value stood at 1.88e-05.
The same measure, in the same setting: the same measure for chain 1 D12P: 3.33e-05; for chain 1 D12G: 3.31e-05.
On the same count and under the same terms, the same measure for chain 1 P15Y: 5.19e-05.
Same read-out and setting: for chain 1 P15E the value was 0; for chain 1 P15L, 3.43e-05.
Regarding chain 1 P15A, the screen value worked out at 1.57e-05.
The same measure, in the same setting: the same measure for chain 1 P15W: 2.45e-05; for chain 1 P15F: 0.
On the same count and under the same terms, for chain 1 A5S the value was 3.33e-05.
Still for that read-out and setting: for chain 1 A5L the value was 1.55e-05; for chain 1 A5H, 2.76e-05; for chain 1 A5G, 6.16e-05.
Take chain 1 A11F: the screen value is 1.35e-05.
Still for that read-out and setting: for chain 1 A11D the value was 0.
Regarding chain 1 A11S, the screen value came out at 2.43e-05.
On the same count and under the same terms, the same measure for chain 1 A11W: 0.
Turning to chain 1 F10R, the screen value was determined as 0.
The same measure, in the same setting: the same measure for chain 1 F10H: 0; for chain 1 W6P: 0; for chain 1 W6V: 0.
On the same count and under the same terms, for chain 1 S4M the value was 6.83e-05; for chain 1 S4V, 0.
Still for that read-out and setting: for chain 1 S4A the value was 0; for chain 1 S4D, 6.54e-05; for chain 1 F7S, 3.52e-05.
Take chain 1 F7M: the screen value was 7.76e-05.
Same read-out and setting: the same measure for chain 1 F7R: 0.
On the same count and under the same terms, for chain 1 F7V the value was 5.76e-05; for chain 1 M3A, 1.55e-05; for chain 1 L9A, 0.
The same measure, in the same setting: the same measure for chain 1 L9W: 7.05e-05; for chain 1 L9T: 3.99e-05.
For the variant chain 1 L9I, the screen value was 3.31e-05.
On the same count and under the same terms, the same measure for chain 1 N8S: 2.43e-05.
The same measure, in the same setting: the same measure for chain 1 N8Q: 5.42e-05; for chain 1 N8D: 6.98e-05.

In the next experiment the parent is B2. The settings on record: with NSP9 (ORF1ab Nsp9, residues 4141-4253); bait immobilised on MaxiSorp plates (10 µg), library pre-cleared on GST, 2 h binding at 4 °C, five washes; one round per day, days 1-4; value from days 2 and 3; keep out of graded; scale: average fractional NGS count over selection days 2 and 3.
Turning to chain 1 Q10I, the screen value was 0.
chain 1 Q10E: the screen value stood at 0.000217.
With chain 1 G15A, the screen value stood at 0.
Regarding chain 1 G15D, the screen value came to 0.
The same measure, in the same setting: for chain 1 G15V the value was 0.000116.
As for chain 1 G15Q, the screen value is 4.92e-05.
Consider chain 1 G15S, for which the screen value is 0.
On the same count and under the same terms, for chain 1 G15E the value was 0; for chain 1 G15W, 0.
In the case of chain 1 S1Y, the screen value came to 0.
On the same count and under the same terms, for chain 1 S1E the value was 2.09e-05; for chain 1 S1L, 0.
The same measure, in the same setting: the same measure for chain 1 S1D: 0.000541.
Same read-out and setting: for chain 1 S1M the value was 1.76e-05; for chain 1 S1H, 0.
For the variant chain 1 S1N, the screen value was found to be 0.000364.
For the variant chain 1 S13G, the screen value is 0.
chain 1 S13Q: the screen value turned out to be 0.
The same measure, in the same setting: the same measure for chain 1 S13V: 0; for chain 1 S13N: 2.85e-05; for chain 1 S4W: 0.
Still for that read-out and setting: for chain 1 S4P the value was 0.
Still for that read-out and setting: for chain 1 S4D the value was 0.
chain 1 S4Y: the screen value is 0.
For the variant chain 1 S4K, the screen value came out at 0.
The same measure, in the same setting: for chain 1 G2V the value was 0.
The same measure, in the same setting: the same measure for chain 1 G2L: 0; for chain 1 G2I: 0; for chain 1 V8A: 3.17e-05.
On to chain 1 V8G, for which the screen value worked out at 0.
Still for that read-out and setting: for chain 1 V8D the value was 0.000118; for chain 1 V8H, 0.000119.
Still for that read-out and setting: the same measure for chain 1 V8K: 0; for chain 1 V8E: 2.09e-05.
Same read-out and setting: for chain 1 V8P the value was 0; for chain 1 V8Q, 0.000101; for chain 1 I5E, 0.
Regarding chain 1 L3V, the screen value is 0.000196.
Still for that read-out and setting: for chain 1 L3W the value was 0.
For the variant chain 1 S11N, the screen value stood at 0.
Same read-out and setting: the same measure for chain 1 S11A: 0.
Take chain 1 S11T: the screen value is 0.
With chain 1 S11D, the screen value was 2.69e-05.
On the same count and under the same terms, the same measure for chain 1 P14R: 0; for chain 1 P14T: 0.
As for chain 1 P14E, the screen value was found to be 2.37e-05.
The same measure, in the same setting: the same measure for chain 1 T7S: 0; for chain 1 T7D: 0.
With chain 1 T7P, the screen value amounted to 0.000499.
With chain 1 T7E, the screen value came out at 0.000776.
On the same count and under the same terms, for chain 1 T7Q the value was 0; for chain 1 S12E, 0; for chain 1 S12I, 0.
Still for that read-out and setting: the same measure for chain 1 S12D: 0; for chain 1 F9E: 0.000224; for chain 1 F9N: 9.97e-05.
On the same count and under the same terms, for chain 1 F9K the value was 0.
As to chain 1 F9V, the screen value came out at 0.000209.
Still for that read-out and setting: for chain 1 F9T the value was 0.

Another experiment covers variants of B3. To be noted: with NSP3 SUD-M (ORF1ab Nsp3c SUD-M, residues 1356-1493); bait immobilised on MaxiSorp plates (10 µg), library pre-cleared on GST, 2 h binding at 4 °C, five washes; one round per day, days 1-4; value from days 2 and 3; keep out of graded; scale: average fractional NGS count over selection days 2 and 3.
For chain 1 Y14F, the screen value was 0.
Same read-out and setting: for chain 1 Y14T the value was 0.
Take chain 1 S12P: the screen value worked out at 0.
In the case of chain 1 L7T, the screen value was found to be 0.
Still for that read-out and setting: the same measure for chain 1 L7P: 0.
The same measure, in the same setting: the same measure for chain 1 L7N: 0; for chain 1 L7Q: 0; for chain 1 L8S: 0.
For chain 1 L8I, the screen value was determined as 0.
On the same count and under the same terms, the same measure for chain 1 L8E: 0; for chain 1 L8W: 0.
On the same count and under the same terms, the same measure for chain 1 L4Y: 0; for chain 1 L4M: 0.
Same read-out and setting: for chain 1 L4G the value was 0.
In the case of chain 1 L4R, the screen value came out at 0.
On the same count and under the same terms, the same measure for chain 1 D13I: 0; for chain 1 D13N: 0; for chain 1 D13G: 0.
For the variant chain 1 D13F, the screen value amounted to 0.
With chain 1 D13S, the screen value worked out at 0.
On the same count and under the same terms, for chain 1 M1K the value was 0; for chain 1 M1T, 0.
For chain 1 M1R, the screen value worked out at 0.
Take chain 1 M1G: the screen value turned out to be 0.
For the variant chain 1 M1H, the screen value worked out at 0.
For chain 1 I15R, the screen value turned out to be 0.
For chain 1 I15G, the screen value is 0.
The same measure, in the same setting: the same measure for chain 1 I15M: 0; for chain 1 S10G: 0.
Still for that read-out and setting: the same measure for chain 1 A11N: 0.
On the same count and under the same terms, the same measure for chain 1 A11W: 0.
In the case of chain 1 E5K, the screen value was 0.
Regarding chain 1 E5W, the screen value is 0.
Same read-out and setting: for chain 1 E5D the value was 0.000325; for chain 1 A2H, 3.41e-05; for chain 1 A2T, 0.
Regarding chain 1 A2R, the screen value is 0.
In the case of chain 1 A2W, the screen value was 0.
Still for that read-out and setting: for chain 1 E3W the value was 6.52e-05; for chain 1 E3T, 0.000884; for chain 1 E3N, 0.
Still for that read-out and setting: the same measure for chain 1 E3Q: 0; for chain 1 E3M: 0; for chain 1 Q6K: 0.
Still for that read-out and setting: for chain 1 Q6Y the value was 0.
For the variant chain 1 Q6G, the screen value turned out to be 0.
The same measure, in the same setting: for chain 1 Q6P the value was 0; for chain 1 Q6S, 0.

In a further experiment the parent is B4. To be noted: with NSP3 UBl1 (ORF1ab Nsp3a Ub1, residues 819-925); bait immobilised on MaxiSorp plates (10 µg), library pre-cleared on GST, 2 h binding at 4 °C, five washes; one round per day, days 1-4; value from days 2 and 3; keep out of graded; scale: average fractional NGS count over selection days 2 and 3.
Take chain 1 E2N: the screen value was 0.
On to chain 1 L6E, for which the screen value was 0.
On the same count and under the same terms, for chain 1 L6D the value was 0; for chain 1 L6G, 0.
On the same count and under the same terms, for chain 1 N15V the value was 0.00016; for chain 1 N15F, 0.113.
The same measure, in the same setting: the same measure for chain 1 N15I: 2.73e-05; for chain 1 N15H: 5.47e-06.
